Measured values: PMC10786891, “Massively parallel profiling of RNA-targeting CRISPR-Cas13d”

T1: EsCas13d, nuclease-dead (Eubacterium siraeum, UniProt B0MS50, R295A;H300A;R849A;H854A)
T1 sequence: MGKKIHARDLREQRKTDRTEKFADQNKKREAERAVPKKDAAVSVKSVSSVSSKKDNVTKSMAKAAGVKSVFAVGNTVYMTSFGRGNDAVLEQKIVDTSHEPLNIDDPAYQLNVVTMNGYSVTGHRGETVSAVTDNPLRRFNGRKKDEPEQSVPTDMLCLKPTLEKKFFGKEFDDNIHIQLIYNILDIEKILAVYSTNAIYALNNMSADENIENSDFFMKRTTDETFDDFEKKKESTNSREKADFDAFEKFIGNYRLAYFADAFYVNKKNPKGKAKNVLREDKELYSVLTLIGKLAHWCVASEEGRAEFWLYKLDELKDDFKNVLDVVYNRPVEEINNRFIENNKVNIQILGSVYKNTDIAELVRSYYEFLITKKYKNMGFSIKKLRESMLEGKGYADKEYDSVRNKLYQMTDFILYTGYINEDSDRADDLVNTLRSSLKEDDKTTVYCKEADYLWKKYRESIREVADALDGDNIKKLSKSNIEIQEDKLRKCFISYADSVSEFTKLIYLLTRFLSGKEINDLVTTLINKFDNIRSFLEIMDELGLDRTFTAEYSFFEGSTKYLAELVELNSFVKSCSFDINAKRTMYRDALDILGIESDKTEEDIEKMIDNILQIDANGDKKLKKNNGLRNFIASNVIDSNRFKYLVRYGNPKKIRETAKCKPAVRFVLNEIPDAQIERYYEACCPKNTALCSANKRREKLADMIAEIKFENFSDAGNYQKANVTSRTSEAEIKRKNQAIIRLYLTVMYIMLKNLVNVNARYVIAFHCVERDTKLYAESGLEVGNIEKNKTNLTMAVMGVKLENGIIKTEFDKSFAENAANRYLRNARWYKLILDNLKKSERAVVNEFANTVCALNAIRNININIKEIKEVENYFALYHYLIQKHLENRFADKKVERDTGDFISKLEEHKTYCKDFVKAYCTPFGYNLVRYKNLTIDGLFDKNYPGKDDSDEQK


What follows are binders tested against T1, EsCas13d, nuclease-dead (assay: crRNA (strand 1, pre-loaded); Mg2+; 40 mM Tris-HCl pH 7.5, 150 mM NaCl, 6 mM MgCl2, 1 mM DTT, 0.1% Tween-20, 0.2 mg/ml BSA; 25 C; 10 min per concentration, then washed). Settings: tags: His6-TwinStrep-SUMO cleaved; N-terminal SNAP kept (SNAP-Surface 488); label: 3' end held by stalled T7 RNA polymerase.

| Binder | Kd [nM] |
| --- | --- |
| target 1 MT 5'PFS GCG 3'PFS ACA (mixed) RNA 1: CACCCGUGCAAAAAUGCAGGGGUCUAAAACUGAGCGGAUAACCUCUCUAUGG RNA 2: GGGAAUGGAUCCACAUCUACGAAUUCGCGCCAUAGAGAGGUUAUCCGCUCAACAAGAUCGGAAGAGCACACGU | 32.5 ± 14.5 |
| target 1 MT 5'PFS UGC 3'PFS CAA (mixed) RNA 1: CACCCGUGCAAAAAUGCAGGGGUCUAAAACUGAGCGGAUAACCUCUCUAUGG RNA 2: GGGAAUGGAUCCACAUCUACGAAUUCUGCCCAUAGAGAGGUUAUCCGCUCACAAAGAUCGGAAGAGCACACGU | 63 ± 28.5 |
| target 1 MT 5'PFS GGU 3'PFS UCC (mixed) RNA 1: CACCCGUGCAAAAAUGCAGGGGUCUAAAACUGAGCGGAUAACCUCUCUAUGG RNA 2: GGGAAUGGAUCCACAUCUACGAAUUCGGUCCAUAGAGAGGUUAUCCGCUCAUCCAGAUCGGAAGAGCACACGU | 21 ± 5.5 |
| target 1 insG 3' of 22,insC 3' of 14 (mixed) RNA 1: CACCCGUGCAAAAAUGCAGGGGUCUAAAACUGAGCGGAUAACCUCUCUAUGG RNA 2: GGGAAUGGAUCCACAUCUACGAAUUCGUACGCAUAGAGACGGUUAUCCGCUCACCGAGAUCGGAAGAGCACACGU | 41 ± 17 |
| target 1 MT 5'PFS UCA 3'PFS UAA (mixed) RNA 1: CACCCGUGCAAAAAUGCAGGGGUCUAAAACUGAGCGGAUAACCUCUCUAUGG RNA 2: GGGAAUGGAUCCACAUCUACGAAUUCUCACCAUAGAGAGGUUAUCCGCUCAUAAAGAUCGGAAGAGCACACGU | 9.45 ± 3.3 |
| target 1 MT 5'PFS GUC 3'PFS CGG (mixed) RNA 1: CACCCGUGCAAAAAUGCAGGGGUCUAAAACUGAGCGGAUAACCUCUCUAUGG RNA 2: GGGAAUGGAUCCACAUCUACGAAUUCGUCCCAUAGAGAGGUUAUCCGCUCACGGAGAUCGGAAGAGCACACGU | 28.5 ± 7 |
| target 1 MT 5'PFS AAU 3'PFS AUC (mixed) RNA 1: CACCCGUGCAAAAAUGCAGGGGUCUAAAACUGAGCGGAUAACCUCUCUAUGG RNA 2: GGGAAUGGAUCCACAUCUACGAAUUCAAUCCAUAGAGAGGUUAUCCGCUCAAUCAGAUCGGAAGAGCACACGU | 28.5 ± 12 |
| target 1 MT 5'PFS ACG 3'PFS AAG (mixed) RNA 1: CACCCGUGCAAAAAUGCAGGGGUCUAAAACUGAGCGGAUAACCUCUCUAUGG RNA 2: GGGAAUGGAUCCACAUCUACGAAUUCACGCCAUAGAGAGGUUAUCCGCUCAAAGAGAUCGGAAGAGCACACGU | 26.5 ± 11 |
| target 1 MT 5'PFS GUC 3'PFS CGA (mixed) RNA 1: CACCCGUGCAAAAAUGCAGGGGUCUAAAACUGAGCGGAUAACCUCUCUAUGG RNA 2: GGGAAUGGAUCCACAUCUACGAAUUCGUCCCAUAGAGAGGUUAUCCGCUCACGAAGAUCGGAAGAGCACACGU | 19.5 ± 4 |
| target 1 MT 5'PFS ACU 3'PFS ACA (mixed) RNA 1: CACCCGUGCAAAAAUGCAGGGGUCUAAAACUGAGCGGAUAACCUCUCUAUGG RNA 2: GGGAAUGGAUCCACAUCUACGAAUUCACUCCAUAGAGAGGUUAUCCGCUCAACAAGAUCGGAAGAGCACACGU | ~90 |
| target 1 MT 5'PFS GCU 3'PFS ACG (mixed) RNA 1: CACCCGUGCAAAAAUGCAGGGGUCUAAAACUGAGCGGAUAACCUCUCUAUGG RNA 2: GGGAAUGGAUCCACAUCUACGAAUUCGCUCCAUAGAGAGGUUAUCCGCUCAACGAGAUCGGAAGAGCACACGU | 43.5 ± 10.5 |
| target 1 MT 5'PFS GGU 3'PFS UCA (mixed) RNA 1: CACCCGUGCAAAAAUGCAGGGGUCUAAAACUGAGCGGAUAACCUCUCUAUGG RNA 2: GGGAAUGGAUCCACAUCUACGAAUUCGGUCCAUAGAGAGGUUAUCCGCUCAUCAAGAUCGGAAGAGCACACGU | 44 ± 19 |
| target 1 MT 5'PFS GAG 3'PFS UUA (mixed) RNA 1: CACCCGUGCAAAAAUGCAGGGGUCUAAAACUGAGCGGAUAACCUCUCUAUGG RNA 2: GGGAAUGGAUCCACAUCUACGAAUUCGAGCCAUAGAGAGGUUAUCCGCUCAUUAAGAUCGGAAGAGCACACGU | 36 ± 9 |
| target 1 MT 5'PFS GCU 3'PFS GAA (mixed) RNA 1: CACCCGUGCAAAAAUGCAGGGGUCUAAAACUGAGCGGAUAACCUCUCUAUGG RNA 2: GGGAAUGGAUCCACAUCUACGAAUUCGCUCCAUAGAGAGGUUAUCCGCUCAGAAAGAUCGGAAGAGCACACGU | ~110 |
| target 1 MT 5'PFS GCA 3'PFS CUU (mixed) RNA 1: CACCCGUGCAAAAAUGCAGGGGUCUAAAACUGAGCGGAUAACCUCUCUAUGG RNA 2: GGGAAUGGAUCCACAUCUACGAAUUCGCACCAUAGAGAGGUUAUCCGCUCACUUAGAUCGGAAGAGCACACGU | 11.8 ± 2.55 |
| target 1 MT 5'PFS GCU 3'PFS ACU (mixed) RNA 1: CACCCGUGCAAAAAUGCAGGGGUCUAAAACUGAGCGGAUAACCUCUCUAUGG RNA 2: GGGAAUGGAUCCACAUCUACGAAUUCGCUCCAUAGAGAGGUUAUCCGCUCAACUAGAUCGGAAGAGCACACGU | 33 ± 11 |
| target 1 MT 5'PFS GCC 3'PFS CCA (mixed) RNA 1: CACCCGUGCAAAAAUGCAGGGGUCUAAAACUGAGCGGAUAACCUCUCUAUGG RNA 2: GGGAAUGGAUCCACAUCUACGAAUUCGCCCCAUAGAGAGGUUAUCCGCUCACCAAGAUCGGAAGAGCACACGU | 95 ± 40 |
| target 1 MT 5'PFS UGC 3'PFS UUG (mixed) RNA 1: CACCCGUGCAAAAAUGCAGGGGUCUAAAACUGAGCGGAUAACCUCUCUAUGG RNA 2: GGGAAUGGAUCCACAUCUACGAAUUCUGCCCAUAGAGAGGUUAUCCGCUCAUUGAGAUCGGAAGAGCACACGU | 10.7 ± 2.05 |
| target 1 MT 5'PFS GCU 3'PFS ACC (mixed) RNA 1: CACCCGUGCAAAAAUGCAGGGGUCUAAAACUGAGCGGAUAACCUCUCUAUGG RNA 2: GGGAAUGGAUCCACAUCUACGAAUUCGCUCCAUAGAGAGGUUAUCCGCUCAACCAGAUCGGAAGAGCACACGU | 43 ± 14.5 |
| target 1 U11C,A18C (mixed) RNA 1: CACCCGUGCAAAAAUGCAGGGGUCUAAAACUGAGCGGAUAACCUCUCUAUGG RNA 2: GGGAAUGGAUCCACAUCUACGAAUUCGUACCAUCGAGAGGCUAUCCGCUCACCGAGAUCGGAAGAGCACACGU | 75 ± 10 |
| target 1 MT 5'PFS UCA 3'PFS UAU (mixed) RNA 1: CACCCGUGCAAAAAUGCAGGGGUCUAAAACUGAGCGGAUAACCUCUCUAUGG RNA 2: GGGAAUGGAUCCACAUCUACGAAUUCUCACCAUAGAGAGGUUAUCCGCUCAUAUAGAUCGGAAGAGCACACGU | 11.5 ± 2.3 |
| target 1 MT 5'PFS UCA 3'PFS UAG (mixed) RNA 1: CACCCGUGCAAAAAUGCAGGGGUCUAAAACUGAGCGGAUAACCUCUCUAUGG RNA 2: GGGAAUGGAUCCACAUCUACGAAUUCUCACCAUAGAGAGGUUAUCCGCUCAUAGAGAUCGGAAGAGCACACGU | ~50 |
| target 1 MT 5'PFS GUC 3'PFS CGC (mixed) RNA 1: CACCCGUGCAAAAAUGCAGGGGUCUAAAACUGAGCGGAUAACCUCUCUAUGG RNA 2: GGGAAUGGAUCCACAUCUACGAAUUCGUCCCAUAGAGAGGUUAUCCGCUCACGCAGAUCGGAAGAGCACACGU | 22 ± 4.5 |
| target 1 C2A,A18C (mixed) RNA 1: CACCCGUGCAAAAAUGCAGGGGUCUAAAACUGAGCGGAUAACCUCUCUAUGG RNA 2: GGGAAUGGAUCCACAUCUACGAAUUCGUACCAUCGAGAGGUUAUCCGCUAACCGAGAUCGGAAGAGCACACGU | 47.9 ± 3.3 |
| target 1 MT 5'PFS GCA 3'PFS CUA (mixed) RNA 1: CACCCGUGCAAAAAUGCAGGGGUCUAAAACUGAGCGGAUAACCUCUCUAUGG RNA 2: GGGAAUGGAUCCACAUCUACGAAUUCGCACCAUAGAGAGGUUAUCCGCUCACUAAGAUCGGAAGAGCACACGU | 18.4 ± 4.7 |
| target 1 MT 5'PFS UGC 3'PFS CAC (mixed) RNA 1: CACCCGUGCAAAAAUGCAGGGGUCUAAAACUGAGCGGAUAACCUCUCUAUGG RNA 2: GGGAAUGGAUCCACAUCUACGAAUUCUGCCCAUAGAGAGGUUAUCCGCUCACACAGAUCGGAAGAGCACACGU | ~65 |
| target 1 MT 5'PFS UGC 3'PFS UUC (mixed) RNA 1: CACCCGUGCAAAAAUGCAGGGGUCUAAAACUGAGCGGAUAACCUCUCUAUGG RNA 2: GGGAAUGGAUCCACAUCUACGAAUUCUGCCCAUAGAGAGGUUAUCCGCUCAUUCAGAUCGGAAGAGCACACGU | 14 ± 3.7 |
| target 1 MT 5'PFS GAG 3'PFS UUC (mixed) RNA 1: CACCCGUGCAAAAAUGCAGGGGUCUAAAACUGAGCGGAUAACCUCUCUAUGG RNA 2: GGGAAUGGAUCCACAUCUACGAAUUCGAGCCAUAGAGAGGUUAUCCGCUCAUUCAGAUCGGAAGAGCACACGU | 37 ± 11 |
